In patent publication US20240100174A1, “PROTEIN-PEG INTERACTIONS THAT REDIRECT THE THERMAL UNFOLDING PATHWAY OF PEGYLATED HUMAN GALECTIN-3C” (UNIVERSITY OF FLORIDA RESEARCH FOUNDATION, INCORPORATED, priority 2022, published 2024):

How the values were obtained:
[1] = Equilibrium binding of lactose, intrinsic tryptophan fluorescence; details: ligand lactose; average ± standard deviation of 3 replicated experiments; PBS; read-out: Kd (equilibrium binding constant)
Protocol: (§1) Equilibrium binding data were recorded using a protocol adapted from a previous procedure from Restuccia, et al (38). Intrinsic tryptophan fluorescence was monitored using a Cary Eclipse™ Fluorescence Spectrophotometer (Agilent) operating with Cary Eclipse™ WinFLR software version 1.2 in ‘Scan Mode’. The instrument method parameters were as follows: excitation wavelength was 280 nm, the acquisition range was from 290 nm to 440 nm and the photomultiplier tube sensitivity was set to ‘medium’. Samples were prepared at final concentrations of 1 μM for Gal3C[T243C] or 5 μM Gal3C[T243C]-PEG in 800 ∥L, in PBS for each titration. Samples were pipetted into 0.7×0.7 cm quartz cuvettes with a micro stir bar. Each new experiment was first zeroed against PBS to remove the small background signal from the buffer. […]
(§2) The binding affinity and specificity of Gal3C[T243C]-PEG was compared with Gal3C[T243C] and Gal3C (see FIG. 1C, FIG. 9 and FIG. 10) via an inherent tryptophan fluorescence assay optimized to ensure equilibrium binding conditions. Binding of lactose or LacNac quenches the fluorescence of W181, located adjacent to the bound sugar in the crystal structure of Gal3C, thus permitting direct measurement of ligand Kd values.

[2] = Equilibrium binding of LacNac, intrinsic tryptophan fluorescence; details: ligand LacNac; average ± standard deviation of 3 replicated experiments; PBS; read-out: Kd (equilibrium binding constant)
Protocol: as §1
as §2, with “values. […]” for “values.”

B1: Gal3C[T243C]: Gal3C variant with a single extrinsic cysteine at position 243; SEQ ID NO: 11 (protein)
chain: MAGPLIVPYNLPLPGGVVPRMLITILGTVKPNANRIALDFQRGNDVAFHFNPRFNENNRRVIVCNTKLDNNWGREERQSVFPFESGKPFKIQVLVEPDHFKVAVNDAHLLQYNHRVKKLNEISKLGISGDIDLTSASYCMILEHHHHHH
With B1 the Kd [1] was 413 ± 102 µM and the Kd [2] was 230 ± 56.5 µM.
